This note sets out measurements from publication PMC12440825, “SNARE disassembly requires Sec18/NSF side loading” (Nature Structural & Molecular Biology, 2025).

B2: Sec9 (401–651) (domain or fragment, S. cerevisiae, UniProt P40357 401-651, looked up)
chain: QRGYKTFEEIQKEEEARQQQEEDEAVDEIKQEIKFTKQSSVASTRNTLKMAQDAERAGMNTLGMLGHQSEQLNNVEGNLDLMKVQNKVADEKVAELKKLNRSILAVHVSNPFNSKRRRREREEQLKNRKIEEKLMREQTSQQLSQSTQRIEGAMNANNNISEVRERYQRKNVLEKAKRYQFENDEEDDEMELEIDRNLDQIQQVSNRLKKMALTTGKELDSQQKRLNNIEESTDDLDINLHMNTNRLAGIR
notes: Sec9, S. cerevisiae SNAP25-like SNARE, residues 401-651; source: E. coli BL21(DE3), purified (Ni-NTA, TEV, MonoS, SEC); not shown: His6, N-terminal, cleaved
B4: Sec18 (recombinant, complete coding sequence) (enzyme, S. cerevisiae, UniProt P18759 1-758, looked up)
chain: MFKIPGFGKAAANHTPPDMTNMDTRTRHLKVSNCPNNSYALANVAAVSPNDFPNNIYIIIDNLFVFTTRHSNDIPPGTIGFNGNQRTWGGWSLNQDVQAKAFDLFKYSGKQSYLGSIDIDISFRARGKAVSTVFDQDELAKQFVRCYESQIFSPTQYLIMEFQGHFFDLKIRNVQAIDLGDIEPTSAVATGIETKGILTKQTQINFFKGRDGLVNLKSSNSLRPRSNAVIRPDFKFEDLGVGGLDKEFTKIFRRAFASRIFPPSVIEKLGISHVKGLLLYGPPGTGKTLIARKIGTMLNAKEPKIVNGPEILSKYVGSSEENIRNLFKDAEAEYRAKGEESSLHIIIFDELDSVFKQRGSRGDGTGVGDNVVNQLLAKMDGVDQLNNILVIGMTNRKDLIDSALLRPGRFEVQVEIHLPDEKGRLQIFDIQTKKMRENNMMSDDVNLAELAALTKNFSGAEIEGLVKSASSFAINKTVNIGKGATKLNTKDIAKLKVTREDFLNALNDVTPAFGISEEDLKTCVEGGMMLYSERVNSILKNGARYVRQVRESDKSRLVSLLIHGPAGSGKTALAAEIALKSGFPFIRLISPNELSGMSESAKIAYIDNTFRDAYKSPLNILVIDSLETLVDWVPIGPRFSNNILQMLKVALKRKPPQDRRLLIMTTTSAYSVLQQMDILSCFDNEIAVPNMTNLDELNNVMIESNFLDDAGRVKVINELSRSCPNFNVGIKKTLTNIETARHDEDPVNELVELMTQSA
notes: Hexamer in the y20S complex; heptamer or split hexamer with ATP and Mg2+; No TEV cleavage is described for the preparation used for y20S; also called wild-type Sec18; substrate-free Sec18; source: E. coli BL21(DE3), purified (Ni-NTA, SEC)
B5: Sso1 (1–265) (domain or fragment, S. cerevisiae, UniProt P32867 1-265, looked up)
chain: MSYNNPYQLETPFEESYELDEGSSAIGAEGHDFVGFMNKISQINRDLDKYDHTINQVDSLHKRLLTEVNEEQASHLRHSLDNFVAQATDLQFKLKNEIKSAQRDGIHDTNKQAQAENSRQRFLKLIQDYRIVDSNYKEENKEQAKRQYMIIQPEATEDEVEAAISDVGGQQIFSQALLNANRRGEAKTALAEVQARHQELLKLEKSMAELTQLFNDMEELVIEQQENVDVIDKNVEDAQLDVEQGVGHTDKAVKSARKARKNKIR
notes: Sso1, S. cerevisiae syntaxin-like SNARE, residues 1-265 (Habc domain, linker, SNARE domain; no transmembrane domain); also called SNARE Sso1; source: E. coli BL21(DE3), purified (Ni-NTA, TEV, ion exchange, SEC); not shown: His6, N-terminal, cleaved

The target of series [1] is B4. The series is described as follows: cryo-EM structure; y20S complex in the hydrolyzing condition: as nonhydrolyzing, excess MgCl2 added on the grid, 7 s before vitrification; classes 1-4. To be noted: both partners purified.
Series [2] has as its target T1, yeast exocytic SNARE complex Sso1–Sec9–Snc1 (S. cerevisiae, UniProt P32867 1-265; P40357 401-651; P31109 1-93).
T1 construct: Sso1, S. cerevisiae, residues 1-265; as m4; Sec9, S. cerevisiae, residues 401-651; as m5; Snc1, S. cerevisiae, residues 1-93; as m6; also called ySNARE complex; yeast exocytic complex; source: E. coli BL21(DE3), each SNARE purified, mixed 1:1:1 in 6 M GdHCl, dialysed, purified (MonoQ); not shown: His6, N-terminal, cleaved; copies: 1 + 1 + 1
T1 sequence (looked up) 1: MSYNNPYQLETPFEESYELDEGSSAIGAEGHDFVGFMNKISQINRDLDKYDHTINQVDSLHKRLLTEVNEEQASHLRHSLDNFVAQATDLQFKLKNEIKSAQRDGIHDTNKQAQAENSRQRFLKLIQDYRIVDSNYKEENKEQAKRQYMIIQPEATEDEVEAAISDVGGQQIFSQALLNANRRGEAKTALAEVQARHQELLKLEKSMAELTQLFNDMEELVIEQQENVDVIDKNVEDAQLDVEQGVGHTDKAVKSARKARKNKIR
T1 sequence (looked up) 2: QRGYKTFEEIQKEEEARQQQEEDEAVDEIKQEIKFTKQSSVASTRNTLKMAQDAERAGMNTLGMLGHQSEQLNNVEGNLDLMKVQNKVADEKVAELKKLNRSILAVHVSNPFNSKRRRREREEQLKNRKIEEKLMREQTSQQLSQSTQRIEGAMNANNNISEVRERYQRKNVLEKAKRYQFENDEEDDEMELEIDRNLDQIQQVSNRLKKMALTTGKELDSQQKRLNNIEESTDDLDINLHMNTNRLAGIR
T1 sequence (looked up) 3: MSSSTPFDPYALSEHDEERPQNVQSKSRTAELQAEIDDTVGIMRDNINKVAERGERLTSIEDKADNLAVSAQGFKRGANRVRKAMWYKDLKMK
The series is described as follows: cryo-EM structure; y20S complex in the nonhydrolyzing condition: preformed ySNARE complex + Sec17 + EDTA-quenched Sec18 (Sec18:SNARE:Sec17 1:1.67:10) in 50 mM Tris, 150 mM NaCl, 1 mM TCEP, 1 mM ATP, 1 mM EDTA pH 8, Superose 6; eight 3D classes. Particulars: both partners purified.

The series “Sso1 (1–265)” has as its target B5. The series is described as above. To be noted: both partners purified.
The series “Sec9 (401–651)” deals with B2. The description is as above. Particulars: both partners purified.
Series [3] deals with the molecule itself. The series is described as follows: cryo-EM structure; y20S complex in the hydrolyzing condition: as nonhydrolyzing, excess MgCl2 added on the grid, 7 s before vitrification; classes 1-4.
Series [4] concerns the molecule itself. The series is described as follows: cryo-EM structure; y20S complex in the nonhydrolyzing condition: preformed ySNARE complex + Sec17 + EDTA-quenched Sec18 (Sec18:SNARE:Sec17 1:1.67:10) in 50 mM Tris, 150 mM NaCl, 1 mM TCEP, 1 mM ATP, 1 mM EDTA pH 8, Superose 6; eight 3D classes.
Series [5] deals with the molecule itself. The experiment in a line: cryo-EM structure; substrate-free NSF in the hydrolyzing condition: buffer with ATP and 1 mM MgCl2 instead of EDTA, final SEC; four classes, 3DVA of class 3.

Broadly, the stoichiometry N is the number of molecules, sites or subunits per partner or assembly.

B1: Sec17 (natural protein, S. cerevisiae, UniProt P32602 1-292, looked up)
chain: MSDPVELLKRAEKKGVPSSGFMKLFSGSDSYKFEEAADLCVQAATIYRLRKELNLAGDSFLKAADYQKKAGNEDEAGNTYVEAYKCFKSGGNSVNAVDSLENAIQIFTHRGQFRRGANFKFELGEILENDLHDYAKAIDCYELAGEWYAQDQSVALSNKCFIKCADLKALDGQYIEASDIYSKLIKSSMGNRLSQWSLKDYFLKKGLCQLAATDAVAAARTLQEGQSEDPNFADSRESNFLKSLIDAVNEGDSEQLSEHCKEFDNFMRLDKWKITILNKIKESIQQQEDDLL
notes: also called Sec17/α-SNAP; adaptor Sec17; source: E. coli BL21(DE3), purified (Ni-NTA, TEV, MonoQ, SEC); not shown: His10, N-terminal, cleaved
For the molecule B1, the binding result in series [1] and in series [2] was “binds” throughout.

Regarding B2, the binding result with Sso1 (1–265) is “binds”.

B3: Snc1 (1–93) (domain or fragment, S. cerevisiae, UniProt P31109 1-93, looked up)
chain: MSSSTPFDPYALSEHDEERPQNVQSKSRTAELQAEIDDTVGIMRDNINKVAERGERLTSIEDKADNLAVSAQGFKRGANRVRKAMWYKDLKMK
notes: Snc1, S. cerevisiae synaptobrevin-like SNARE, residues 1-93; source: E. coli BL21(DE3), purified (Ni-NTA, TEV, ion exchange, SEC); not shown: His6, N-terminal, cleaved
On to B3, for which the binding result in the series with Sec9 (401–651) and in the series with Sso1 (1–265) was “binds” throughout.

As for B4, the “stoichiometry N” value in series [3] is 7; in series [4], 6.

With B5, the binding result in series [1] was “binds”.

B6: NSF (N-ethylmaleimide-sensitive factor) (enzyme, C. griseus)
chain: MAGRSMQAARCPTDELSLSNCAVVSEKDYQSGQHVIVRTSPNHKYIFTLRTHPSVVPGSVAFSLPQRKWAGLSIGQEIEVALYSFDKAKQCIGTMTIEIDFLQKKNIDSNPYDTDKMAAEFIQQFNNQAFSVGQQLVFSFNDKLFGLLVKDIEAMDPSILKGEPASGKRQKIEVGLVVGNSQVAFEKAENSSLNLIGKAKTKENRQSIINPDWNFEKMGIGGLDKEFSDIFRRAFASRVFPPEIVEQMGCKHVKGILLYGPPGCGKTLLARQIGKMLNAREPKVVNGPEILNKYVGESEANIRKLFADAEEEQRRLGANSGLHIIIFDEIDAICKQRGSMAGSTGVHDTVVNQLLSKIDGVEQLNNILVIGMTNRPDLIDEALLRPGRLEVKMEIGLPDEKGRLQILHIHTARMRGHQLLSADVDIKELAVETKNFSGAELEGLVRAAQSTAMNRHIKASTKVEVDMEKAESLQVTRGDFLASLENDIKPAFGTNQEDYASYIMNGIIKWGDPVTRVLDDGELLVQQTKNSDRTPLVSVLLEGPPHSGKTALAAKIAEESNFPFIKICSPDKMIGFSETAKCQAMKKIFDDAYKSQLSCVVVDDIERLLDYVPIGPRFSNLVLQALLVLLKKAPPQGRKLLIIGTTSRKDVLQEMEMLNAFSTTIHVPNIATGEQLLEALELLGNFKDKERTTIAQQVKGKKVWIGIKKLLMLIEMSLQMDPEYRVRKFLALLREEGASPLDFD
notes: Heptamer (class 1) or hexamer (classes 2-4) with ATP and Mg2+; also called substrate-free NSF; high-purity NSF
As to B6, the “stoichiometry N” value in series [5] is 7.
